Measured values from paper PMC6316570, “G-Protein Coupled Receptor Protein Synthesis on a Lipid Bilayer Using a Reconstituted Cell-Free Protein Synthesis System” (Life, 2018).

T1: His-tagged CX3CR1 (human, UniProt P49238 1-355)
T1 construct: CX3CR1 (fractalkine receptor), human cDNA; Two templates are described; The pET28a plasmid has an N-terminal 6xHis tag, the linker DYDIPTT and a TEV site; The linear PCR product takes its His-tag from the reverse primer, which would be C-terminal; In the nanodisc assay the receptor sat in a lipid nanodisc (MSP scaffold, POPC/POPS/cholesterol); In the micelle assay it was in detergent; also called …
T1 sequence (looked up): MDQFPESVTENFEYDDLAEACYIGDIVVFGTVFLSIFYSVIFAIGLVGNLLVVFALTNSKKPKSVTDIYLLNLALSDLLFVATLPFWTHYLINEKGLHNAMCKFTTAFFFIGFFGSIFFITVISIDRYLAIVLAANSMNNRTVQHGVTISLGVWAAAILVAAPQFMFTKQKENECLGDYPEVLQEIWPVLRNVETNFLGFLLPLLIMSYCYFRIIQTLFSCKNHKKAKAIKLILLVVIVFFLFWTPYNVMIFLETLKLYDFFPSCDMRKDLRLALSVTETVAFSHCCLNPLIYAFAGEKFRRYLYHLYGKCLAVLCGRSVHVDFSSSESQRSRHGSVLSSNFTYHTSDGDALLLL

B1: strep-II-tagged ligand CX3CL1 (ligand, UniProt P78423 25-100, looked up)
chain: QHHGVTKCNITCSKMTSKIPVALLIHYQQNQASCGKRAIILETRQHRLFCADPKEQWVKDAMQHLDRQAAALTRNG
notes: fractalkine (CX3CL1), amplified from pUREstrept2 plasmid; printed size 8.5 kDa; also called fractalkine; CX3CL1-tagged with Strep-tag II; source: PURE system (cell-free), not purified, immobilized directly; not shown: Strep-tag II, N-terminal, kept

What was measured:
His-tagged CX3CR1 [1] = molecular target: T1, His-tagged CX3CR1; assay: SPR; Biacore T200; unpurified PURE-synthesized His-tagged CX3CR1-nanodisc complex captured (~1500 RU) on Penta-His antibody on CM5 chip; purified CX3CL1 injected; HBS-P (10 mM HEPES pH 7.4, 150 mM NaCl, 0.05% P20), 25 °C, 30 µL/min; single cycle kinetics; 1:1 interaction model
His-tagged CX3CR1 [2] = molecular target: T1, His-tagged CX3CR1; assay: SPR; Biacore T200; unpurified PURE-synthesized Strep-tag II CX3CL1 captured (~1000 RU) on StrepMAB-Immo antibody on CM5 chip; purified His-tagged CX3CR1 synthesized with micelles, in detergent, injected; HBS-P, 25 °C, 30 µL/min; single cycle kinetics; 1:1 interaction model; settings: one partner purified

Molecule	Kd (His-tagged CX3CR1 [1])	Kd (His-tagged CX3CR1 [2])
recombinant CX3CL1 protein (from UniProt P78423 25-397) (ligand)	0.0278 µM	–
B1	–	0.0394 µM
